In series [1] the test system is histidine-rich glycoprotein (HRG). The experiment in a line: Antimicrobial assay: inhibition of the bactericidal activity of HRG against S. pyogenes AP1. It counts as cell-based. To be noted: recombinant His-tagged HRG 0.45 μM, S. pyogenes AP1 2 × 10^6 cfu/ml, 10 mM MES, pH 5.5, 5 mM glucose, various sHIP concentrations, 40 min, 37°C, cfu counts, at least three repeats, mean ± SD (values only in Figure 3). How it is done:
The S. pyogenes strain AP1 (40/58), was from the World Health Organization Collaborating Centre for Reference and Research on Streptococci, Prague, Czech Republic. The bacteria were cultivated in THY (Todd-Hewitt broth (Difco) supplemented with 0.2% yeast extract (Oxoid) at 37°C and 5% CO2 until reaching mid-log phase (OD 620 nm approximately 0.4). The bacterial cells were washed and resuspended in 10 mM Tris-HCl, pH 7.5, containing 5 mM glucose, to a concentration of 2 × 10^9 cfu (colony forming unit)/ml. Subsequently, the bacteria were diluted to a concentration of 2 × 10^6 cfu/ml in 10 mM MES buffer, pH 5.5, containing 5 mM glucose. Fifty microliters of the bacterial solution was incubated with recombinant His-tagged HRG (Creative Biomart) at a concentration of 0.45 μM together with various concentrations of protein sHIPwt or protein sHIPqp for 40 min at 37°C. Serial dilutions of the incubation mixtures were plated on TH agar, plates were incubated over night at 37°C and the number of cfu's were determined.
Experiments were repeated at least three times and mean values ± SD are shown.

A short description of series [2]: Analytical ultracentrifugation, sedimentation velocity (oligomeric state in solution). It counts as physicochemical. To be noted: 20°C, 50000 rpm, Beckman XL-I, 20 mM MES, pH 5.5, SEDFIT c(S). The procedure:
Sedimentation velocity experiments were performed at 20°C and 50000 rpm using a Beckman XL-I instrument. Samples containing either sHIPwt or sHIPqp were in 20 mM MES buffer (2-(N-morpholino) ethanesulfonic acid), pH 5.5. The data were analyzed with SEDFIT using a continuous c (S) distribution (Schuck, [2000]). HYDROPRO (Ortega et al., [2011]) was used to calculate the theoretical sedimentation coefficient using the PDB IDs 4MER (sHIPwt) and 4PZ1 (sHIPqp), respectively.
Figure 2 Sedimentation velocity experiments for protein sHIP. The dotted lines indicate the theoretical sedimentation coefficient for a tetramer and a dimer respectively calculated using HYDROPRO and the structural coordinates for protein sHIPwt (PDB ID: 4MER) and protein sHIPqp (PDB ID: 4PZ1). The wild-type sHIPwt is shown in black, and the sHIPqp mutant in red respectively.

Series [3] has as its system histidine-rich glycoprotein (HRG). Kind of series: Interaction of the sHIP mutant with intact HRG and histidine-rich repeats. Type of series: binding. To be noted: stated in abstract; no separate data shown.
Another series relates to S. pyogenes. To be noted: ref Shannon et al., 2010; cited from earlier work.
For series [4] the following is noted: ref Rydengård et al., 2007; cited from earlier work.
In a further series the test system is sHIP. To be noted: previous studies; ref Wisniewska et al., 2014; cited from earlier work. From the text: In a recent study, we quantitatively analyzed and compared S. pyogenes proteins in the growth medium of a strain that is virulent to mice (AP1), with a non-virulent strain (SF370).

Entries after “also recorded” stand apart in the source; their conditions may differ.

B1: sHIPqp (protein)
chain: SMKQDQLIVEKMEQTYEAFSPKLANLIEALDAFKEHYEEYATLRNFYSSDEWFRLANQPWDDIPSGVLSEDLLFDMIGDHNQLAADIADLAPIMAKHM
modifications: left off: His-tag, N-terminal, cleaved
In the case of B1, the “inhibition of the bactericidal activity of HRG” value in series [1] was “inhibits the bactericidal activity of HRG to the same or even higher extent that wildtype sHIP; also recorded: inhibits the bactericidal activity of HRG more efficiently than protein sHIP wildtype; also recorded: maintain its full inhibitory capacity of HRG in antimicrobial assays”; in series [1] (listed as sHIP mutant), “inhibits their antibacterial activity to the same or even higher extent as compared to the wild type protein sHIP”. For the same molecule, the “oligomeric state in solution” value in series [2] was “dimers in solution”; in series [2] (listed as sHIP mutant) it was “only as dimers in solution”. The “interaction with intact HRG and the histidine-rich repeats in HRG” value in series [3] was “interacts with intact histidine-rich glycoprotein (HRG) and the histidine-rich repeats in HRG”.

B2: HRG: abundant plasma glycoprotein of approximately 60 kDa; recombinant His-tagged HRG (protein)
chain: VSPTDCSAVEPEAEKALDLINKRRRDGYLFQLLRIADAHLDRVENTTVYYLVLDVQESDCSVLSRKYWNDCEPPDSRRPSEIVIGQCKVIATRHSHESQDLRVIDFNCTTSSVSSALANTKDSPVLIDFFEDTERYRKQANKALEKYKEENDDFASFRVDRIERVARVRGGEGTGYFVDFSVRNCPRHHFPRHPNVFGFCRADLFYDVEALDLESPKNLVINCEVFDPQEHENINGVPPHLGHPFHWGGHERSSTTKPPFKPHGSRDHHHPHKPHEHGPPPPPDERDHSHGPPLPQGPPPLLPMSCSSCQHATFGTNGAQRHSHNNNSSDLHPHKHHSHEQHPHGHHPHAHHPHEHDTHRQHPHGHHPHGHHPHGHHPHGHHPHGHHPHCHDFQDYGPCDPPPHNQGHCCHGHGPPPGHLRRRGPGKGPRPFHCRQIGSVYRLPPLRKGEVLPLPEANFPSFPLPHHKHPLKPDNQPFPQSVSESCPGKFKSGFPQVSMFFTHTFPK
modifications: left off: His-tag, end not stated, kept
notes: abundant plasma glycoprotein of approximately 60 kDa; recombinant His-tagged HRG
Consider B2, for which the “antibacterial activity against S. pyogenes” value with S. pyogenes is given as “antibacterial activity including activity against S. pyogenes”. For the same molecule, in series [4], the antimicrobial potency entry is reported as “broad antimicrobial potency”. The “affinity for sHIP (in words)” value in the series on sHIP is on record as “nanomolar to micromolar affinity; also recorded: high affinity”.

Source of the values: article PMC4742562, “Structure and Interactions of a Dimeric Variant of sHIP, a Novel Virulence Determinant of Streptococcus pyogenes” (Frontiers in Microbiology, 2016).
